The source of these data is patent publication US20220340684A1.

The target of assay [1] is Recombinant human TRIM21 PRYSPRY domain (His-tagged, expressed in E. coli BL21 (DE3)) (human) (UniProt P19474). Put plainly: SPR, antibody immobilized, TRIM21 PRYSPRY as analyte.
Assay [2] has the same target. The assay can be described thus: SPR (ProteON XPR36), antibody amine-coupled to GLC chip, TRIM21 PRYSPRY as analyte, Langmuir 1:1.
The target is the same in assay [3]. Put plainly: SPR, antibody immobilized, TRIM21 PRYSPRY as analyte; the column's head prints (M), the text gives 125 nM.
The target in assay [4] is Human TRIM21 (endogenous, cytosolic, in moDC and HeLa cells) (human) (UniProt P19474). The assay can be described thus: cell-based or functional assay.
Human TRIM21 (endogenous, cytosolic, in moDC and HeLa cells) (human), sequence (P19474 whole entry): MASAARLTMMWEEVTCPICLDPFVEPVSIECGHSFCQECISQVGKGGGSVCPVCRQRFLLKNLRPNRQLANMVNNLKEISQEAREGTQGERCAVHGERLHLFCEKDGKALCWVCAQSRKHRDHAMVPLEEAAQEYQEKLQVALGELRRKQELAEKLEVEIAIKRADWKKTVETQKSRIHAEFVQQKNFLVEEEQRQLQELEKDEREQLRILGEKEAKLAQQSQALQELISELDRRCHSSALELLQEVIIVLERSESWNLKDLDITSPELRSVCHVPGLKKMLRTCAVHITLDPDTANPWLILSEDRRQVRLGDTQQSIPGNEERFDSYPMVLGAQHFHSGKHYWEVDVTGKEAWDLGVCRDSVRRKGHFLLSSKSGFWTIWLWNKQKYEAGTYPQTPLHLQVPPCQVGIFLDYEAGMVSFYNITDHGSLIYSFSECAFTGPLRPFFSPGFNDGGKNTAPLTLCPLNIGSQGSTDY

Recombinant human TRIM21 PRYSPRY domain (His-tagged, expressed in E. coli BL21 (DE3)) (human), sequence (P19474 287-475): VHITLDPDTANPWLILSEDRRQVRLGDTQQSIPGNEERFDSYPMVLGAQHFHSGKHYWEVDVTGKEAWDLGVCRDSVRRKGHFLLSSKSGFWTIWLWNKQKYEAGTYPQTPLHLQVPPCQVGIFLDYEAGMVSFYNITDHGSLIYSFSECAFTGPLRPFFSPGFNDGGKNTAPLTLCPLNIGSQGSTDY

For the substance “V4 chimeric IgG1 (9C12 variable domains, human IgG1 with 256P/433T/434R/436F Fc) (antibody)”, the equilibrium dissociation constant (Kd) in assay [1] stood at 0.276 nM.

For “V1 chimeric IgG1 (9C12 variable domains, human IgG1 with 256P/434R/436F/440I Fc) (antibody)”, the dissociation constant (Kd) in assay [1] is 10.8 nM. As for “V3 chimeric IgG1 (9C12 variable domains, human IgG1 with 256P/433T/434R/440I Fc) (antibody)”, in assay [1], the Kd was found to be 0.211 nM.

“V2 chimeric IgG1 (9C12 variable domains, human IgG1 with 256P/433T/436F/440I Fc) (antibody)”: the Kd in assay [1] was determined as 1620 nM. Regarding “Fc-unmodified human IgG1 (anti-DEC205, variable domains of 3G9-2D2, wildtype human IgG1 constant regions) (antibody)”, the Kd in assay [2] was found to be 47.3 nM. As for “Wildtype chimeric IgG1 (anti-Ad5 hexon, mouse 9C12 variable domains, wildtype human IgG1 constant regions) (antibody)”, the Kd in assay [3] came to 125 nM. In assay [4], this substance came in with an IC50 of ADIN of Ad5-eGFP infection in moDCs, MOI 400 of 3 nM and an IC50 of antibody-dependent intracellular neutralization (ADIN) of Ad5-eGFP infection in HeLa cells, MOI 1.2 of 900 nM. With “V5 chimeric IgG1 (9C12 variable domains, human IgG1 with 433T/434R/436F/440I Fc, Thr at 256) (antibody)”, in assay [1], the dissociation constant Kd was 23.5 nM.
